We go through one molecule from US20060217308A1, “Compositions for the treatment of tumor pathologies, comprising internalin B (ln1B) of Listeria monocytogene protein or a fragment thereof” (priority 2005, published 2006).

For assay [1], the system named is Met. Kind of assay: Maintenance of InIB-induced degradation of Met in the presence of HGF. The format is cell-based, human. The conditions noted are these: HeLa cells, HGF 1 nM + InIB 5 nM, 1% serum medium. The procedure: FIG. 9 depicts immunodetection of Met from total cell lysates. Serum-containing media (1%) with HGF (1 nM), HGF (1 nM)+InIB (5 nM), or without either HGF or InIB (control) was added to HeLa cells. Cells were recovered at the indicated times after addition of HGF, and HGF+InIB, resuspended in SDS-PAGE sample buffer, and immediately boiled for 5 minutes.
Met, sequence (P08581 25-1390): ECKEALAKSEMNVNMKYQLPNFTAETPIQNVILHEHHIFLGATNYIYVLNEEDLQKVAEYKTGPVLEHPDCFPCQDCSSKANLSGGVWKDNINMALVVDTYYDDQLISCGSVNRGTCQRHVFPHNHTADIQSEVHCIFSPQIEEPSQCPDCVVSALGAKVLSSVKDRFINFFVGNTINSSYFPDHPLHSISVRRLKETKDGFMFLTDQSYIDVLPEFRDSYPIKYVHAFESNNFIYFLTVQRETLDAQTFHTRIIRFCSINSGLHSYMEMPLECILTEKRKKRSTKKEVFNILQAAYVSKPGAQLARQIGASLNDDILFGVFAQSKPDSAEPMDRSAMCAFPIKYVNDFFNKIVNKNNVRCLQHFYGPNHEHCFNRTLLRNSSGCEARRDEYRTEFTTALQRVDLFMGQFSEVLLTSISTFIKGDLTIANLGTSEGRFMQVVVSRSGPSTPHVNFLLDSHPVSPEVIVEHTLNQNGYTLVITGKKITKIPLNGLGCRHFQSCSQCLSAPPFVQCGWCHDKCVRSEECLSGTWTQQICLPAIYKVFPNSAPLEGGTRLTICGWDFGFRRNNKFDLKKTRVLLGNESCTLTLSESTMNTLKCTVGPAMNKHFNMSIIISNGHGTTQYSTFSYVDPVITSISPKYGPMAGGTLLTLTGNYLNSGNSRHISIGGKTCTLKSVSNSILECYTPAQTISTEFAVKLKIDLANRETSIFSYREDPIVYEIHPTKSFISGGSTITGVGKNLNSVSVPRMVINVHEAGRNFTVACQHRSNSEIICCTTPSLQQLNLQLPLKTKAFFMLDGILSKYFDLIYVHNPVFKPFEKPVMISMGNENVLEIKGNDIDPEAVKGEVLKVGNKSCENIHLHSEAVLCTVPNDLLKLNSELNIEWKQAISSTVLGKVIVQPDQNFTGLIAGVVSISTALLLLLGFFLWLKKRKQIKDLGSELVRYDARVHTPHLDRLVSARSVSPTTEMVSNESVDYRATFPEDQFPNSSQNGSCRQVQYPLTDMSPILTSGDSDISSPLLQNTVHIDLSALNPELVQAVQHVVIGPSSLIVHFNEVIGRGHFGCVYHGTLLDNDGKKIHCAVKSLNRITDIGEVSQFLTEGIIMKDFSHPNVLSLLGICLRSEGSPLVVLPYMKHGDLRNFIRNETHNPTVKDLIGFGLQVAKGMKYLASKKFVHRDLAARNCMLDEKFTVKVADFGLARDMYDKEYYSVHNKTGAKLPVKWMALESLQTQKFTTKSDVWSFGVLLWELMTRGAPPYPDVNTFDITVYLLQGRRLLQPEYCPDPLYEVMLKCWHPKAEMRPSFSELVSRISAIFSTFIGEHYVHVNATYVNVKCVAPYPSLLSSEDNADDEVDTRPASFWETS
Shortly after InIB treatment, Met is very rapidly degraded. Thus, whether InIB-induced degradation of Met is maintained for longer periods of time was tested. In fact, InIB-induced degradation of Met is maintained in time.

The test system of assay [2] is Met. Kind of assay: In1B-induced ubiquitination of Met (anti-Met immunoprecipitation, anti-ubiquitin blot) in HeLa cells. The assay is classed as cell-based, human. The procedure:
(A) Listeria monocytogenes EGD (BUG600) (MOI 25) or purified In1B (5 nM) were added (+) for two minutes to HeLa cells. Samples were immunoprecipitated against Met and blotted against ubiquitin using P4D1 monoclonal antibody. (B) In1B was added to HeLa cells for two minutes and samples were re-immunoprecipitated against Met. Samples were blotted against ubiquitin (Ub) or Met. (C) Increasing amounts of In1B were added to HeLa cells (1 to 6 corresponding to 0, 0.22, 0.44, 0.88, 1.75, […], 5 nM respectively) for two minutes. Extracts were immunoprecipitated against Met and blotted against Met or ubiquitin (Ub). (D) As C, but 1 to 6 correspond to 0, 3.5, 10, 20, 40, 80 nM In1B, respectively. (E) 5 nm of purified In1B was added to HeLa cells for the indicated times. Cell extracts were immunoprecipitated (IP) against Met and blotted (WB) against Met or ubiquitin (Ub). At the left of all panels the molecular weight markers are indicated in kDa. In C and D, 8% acrylamide gels were used, while 10% acrylamide gels were used in A, B, and E.
Cells, bacteria and growth conditions. The human cell line used was HeLa (ATCC number CCL-2) grown as recommended by ATCC. Typically, cells were serum starved for three hours before the addition of In1B. The bacterial strains used were Listeria monocytogenes BUG600 and BUG1461. They were grown in BHI medium, which in the case […] contained 5 μg/ml of erythromycin.
Assays. Immunoprecipitation, Re-immunoprecipitation, and immunoblots were performed as described before (31). In1B purification was performed as described (54).
It has been previously described that the ubiquitin ligase Cbl is recruited to the Met complex during the first minute after cell treatment with soluble In1B (31). Whether Listeria infection promotes ubiquitination of Met was studied. Epithelial HeLa cells were infected with Listeria monocytogenes (at a m.o.i. 25) or treated with purified In1B (5 nM) (FIG. 1A) for two minutes. Cellular extracts were immunoprecipitated using an antibody that recognizes Met and ubiquitination of immunoprecipitated proteins was tested with an anti-ubiquitin antibody. A clear increase in the amount of ubiquitinated proteins associated with Met was detected after infection with Listeria.
To assess whether the signal observed after In1B treatment corresponded to Met ubiquitination, a re-immunoprecipitation assay was performed. Anti-Met immunoprecipitates from cells samples treated (or not) with In1B were denatured (boiled in presence of 1% SDS), to dissociate Met complexes, and re-immunoprecipitated using anti-Met antibodies. The resulting samples were immunoblotted against ubiquitin (FIG. 1B left panel) and Met (FIG. 1B right panel). Ubiquitin was only detectable in the lane corresponding to In1B treated samples, whereas Met was present in both lanes corresponding to In1B-treated or non-treated samples.
In order to determine the minimal amount of In1B necessary to trigger Met ubiquitination, HeLa cells were treated with increasing amount of In1B for two minutes. Cell extracts were then immunoprecipitated using the anti-Met antibody and blotted with anti ubiquitin or anti Met antibodies (FIGS. 1C and 1D). 1.75 nM of In1B was sufficient to induce ubiquitination of Met. […] Note that ubiquitinated Met migrated slower and than non-ubiquitinated in 8% acrylamide SDS-PAGE gels (FIGS. 1C and 1D), in agreement with an increase in apparent molecular weight of ubiquitinated proteins. Again, Met detection was always weaker after ubiquitination, supporting the previous observation that ubiquitination of Met was leading to Met degradation.
Next, the kinetics of In1B-dependent ubiquitination of Met were tested. In1B (5 nM) was added during increasing time periods to HeLa cells and cell extracts were immunoprecipitated using anti-Met antibodies (FIG. 1E). In1B-induced ubiquitination was maximal two minutes after treatment and declined thereafter. […]

B1: In1B: Listeria monocytogenes surface protein of the internalin family that interacts with Met; purified soluble protein (protein, UniProt P0DQD2 31-630, looked up)
Internalin B: AKVQAETITVPTPIKQIFSDDAFAETIKDNLKKKSVTDAVTQNELNSIDQIIANNSDIKSVQGIQYLPNVTKLFLNGNKLTDIKPLANLKNLGWLFLDENKVKDLSSLKDLKKLKSLSLEHNGISDINGLVHLPQLESLYLGNNKITDITVLSRLTKLDTLSLEDNQISDIVPLAGLTKLQNLYLSKNHISDLRALAGLKNLDVLELFSQECLNKPINHQSNLVVPNTVKNTDGSLVTPEIISDDGDYEKPNVKWHLPEFTNEVSFIFYQPVTIGKAKARFHGRVTQPLKEVYTVSYDVDGTVIKTKVEAGTRITAPKPPTKQGYVFKGWYTEKNGGHEWNFNTDYMSGNDFTLYAVFKAETTEKAVNLTRYVKYIRGNAGIYKLPREDNSLKQGTLASHRCKALTVDREARNGGKLWYRLKNIGWTKAENLSLDRYDKMEYDKGVTAYARVRNASGNSVWTKPYNTAGAKHVNKLSVYQGKNMRILREAKTPITTWYQFSIGGKVIGWVDTRALNTFYKQSMEKPTRLTRYVSANKAGESYYKVPVADNPVKRGTLAKYKNQKLIVDCQATIEGQLWYRIRTSSTFIGWTKAANLRAQK
Regarding B1, the “time for which InIB-induced degradation of Met is maintained” value with Met [1] is given as “at least 24 hours”. Further, in the assay with Met [2] (In1B 5 nM), the “time of maximal In1B-induced ubiquitination of Met” value is on record as “two” and the “time of new wave of Met ubiquitination after addition of In1B” value amounted to 30 min. In addition, the “time at which a new band corresponding to Met appeared after addition of In1B” value in the assay with Met [2] (In1B 5 nM, anti-Met blot of immunoprecipitates) was determined as 15 min. In the assay on Met [2] (In1B two minutes, re-immunoprecipitated anti-Met, blot anti-ubiquitin), the “ubiquitination of Met after In1B treatment (re-immunoprecipitation assay)” value is reported as “induces the ubiquitination of Met”. In the assay with Met [2] (increasing amount of In1B for two minutes), the “minimal amount of In1B necessary to trigger Met ubiquitination” value came out at 1.75 nM. In addition, in the assay on Met [2] (two minutes, 3.5 to 80 nM In1B (FIG. 1D)), the “Met ubiquitination using higher amount of In1B” value is recorded as “did not significantly increase”.
